This note sets out measurements from patent publication US20150148405A1 (Johns Hopkins, published 2015).

The target of the assay is ribosomal protein S6 (RPS6) (mouse, UniProt P62754 1-249). Nature of the assay: co-immunoprecipitation with GW182 antiserum from hippocampal neuron lysates, immunoblot. The protocol:
Proteins and mRNAs associated with P-body component GW182 were isolated through immunoprecipitation of GW182 by modification of previously published protocols (Keene et al., 2006; Moser et al., 2009). Primary cultures of mouse hippocampal neurons (DIV 14-15) were incubated in serum-reduced medium (0.5% B27 supplement) for 2 hours, followed by […] Actinomycin-D for […] and mock or BDNF-stimulation for 30˜60 min. Cell lysates were harvested in polysomal lysis buffer (100 mM KCl, 5 mM MgCl₂, 10 mM HEPES pH 7.0, 0.5% NP-40) with protease inhibitor cocktail and freshly added 20 mM EDTA, 1 mM DTT, 100 U/mL RNase inhibitor (RNaseOut, Invitrogen) and 400 μM Vanadyl ribonucleoside complexes (SIGMA). Lysates were centrifuged and the supernatants pre-cleared by one-hour incubation with recombinant protein G beads pre-washed in NT2 buffer (50 mM Tris-HCl pH 7.4, 150 mM NaCl, 1 mM MgCl₂, 0.05% NP-40). Antibody coating of protein G beads was carried out with antiserum against GW182 (18033, gift of M. Fritzler) or control isotype-specific serum in NT2 buffer plus protease inhibitor for 4 hours after blocking with NT2 buffer plus 5% BSA and 1 mg/mL heparin for 1 hour. For immunoprecipitation (IP), equal amounts of lysate protein (2-5 mg) was incubated with antibody-coated beads and tumbled for 4 hours at 4° C., followed by washing. […]

B1: GW182 (other)
chain: MRELEAKATKDVERNLSRDLVQEEEQLMEEKKKKKDDKKKKEAAQKKATEQKIKVPEQIKPSVSQPQPANSDNGTSTATSTNNNAKRATASNQQPPPPQQQQPQQEQQQQQPQALPRYPREVPPRFRHQEHKQLLKRGQHFPVIAANLGSAVKVLNSQSESSAVTNQQPQNNGEVQNSKSQSDINHNTSGSHYENCQRGPVSSTSDCSTSCKNAVNDLLEKEAWPSAPGSDPELAPECIDADSASNSESERNITVMASGNTGGEKDGLRNSTGLGSQSKFVVGSSSNNVGHGSSTGPWGFPHGALISTCQVSVDAPESKPESSNNRMNAWGTVSSSSNGGLNPSTLNSASNHGAWPVLENNGLALKGPVGSGSSGINIQCSTIGQMPNNQNINSKVSGSSTHGTWGSLQETCEPEVSGTQKVSFSGQPQNITTETTGPNNTTNFMTSSLPNSGSVQNNELPTSNPGAWRVSTMNHPQIQAPSVMNGTSLSHLSNGESKTGGSYGTTWGAYGSNYSGDKCAGPNGQANGDTVNATLMQPGINGPMGTNFQVNTNKGGGVWEPGTVNSQSSPWGSGNGANSGGSRRGWGSPAQNTGTGLSSVEWNKLPSNQHSNDSANGNGKKLTNGWKSTEEDDQGSATSQTNEQNSVWAKAGGTVESDGSAESTGRLEEKVTGESQSRDRRKIDQHTLLQSIVNRTDLDPRVLSNSGWGQTPIKQNTAWDTETSPRGERKTDNGTEAWGSSATQTFNSGACTDKTSPNSNDTSSVSGWGDPKPTLRWGDSKGSNCQGGWEDDSAATGMIKSNQWGGCKEDKSTWNDSQKSKQGWGDGQKSSQGWSISAGDNWGESSRSNHWGEANKKSSSGGSDSDRSISGWNELGKTSSFTWGNNINPNNSSGWDESSKPNSSQGWGDPPKCNQSLGWGDSSKPVSSPDWNKQQDIVGSWGIPPATSKPPGTGWLGGPIPAPAKEEEPTGWEEPSPESIRRKMEIDDGTSAWGDPSKYNYKNVNMWNKNIPEASGRSDQQAQMHRLLPAASAVSSKETSSGSGWGEPWAEPSTPATTVDNGTSAWGKPIDSGPSWGEPITAASNASTWGSSSVGPQSLSKSGPKSMQDGWCGDDMPLPGSRPTGWEEEEDVEIGMWNSNSSQELNSSLNWPPYTKKMSSKGLSGKKRRRERGMMKGGNKQEDAWINPFVKQFSNISFSRDSPEENVQSNKMDLSGGMLQDKRMEIDKHSLNIGDYNRTVGKGPGSRPQISKESSMERNPYFDKNGNPNMFGVGNTAAQPRGMQQPPAQPLSSSQPNLRAQVPPPLLSPQVPVSLLKYAPNNGGLNPLFGPQQVAMLNQLSQLNQLSQISQLQRLLAQQQRAQSQRSAPSANRQQQDQQGRPLSVQQQMMQQSRQLDPSLLVKQQTPPSQQPLHQPAMKSFLDNVMPHTTPELQKGPSPVNAFSNFPIGLNSNLNVNMDMNSIKEPQSRLRKWTTVDSMSVNTSLDQNSSKHGAISSGFRLEESPFVPYDFMNSSTSPASPPGSIGDGWPRAKSPNGSSSVNWPPEFRPGEPWKGYPNIDPETDPYVTPGSVINSLSINTVREVDHLRDRNSGSSSSLNTTLPSTSAWSSIRASNYNVPLSSTAQSTSARNSDSKLTWSPGSVTNTSLAHELWKVPLPPKNITAPSRPPPGLTGQKPPLSTWDNSPLRVGGGWGNSDARYTPGSSWGESSSGRITNWLVLKNLTPQIDGSTLRTLCMQHGPLITFHLNLPHGNALVRYSSKEEVVKAQKSLHMCVLGNTTILAEFASEEEISRFFAQSQSLTPSPGWQSLGSSQSRLGSLDCSHSFSSRTDVNHWNGAGLSGANCGDLHGTSLWGTPHYSTSLWGPPSSDPRGISSPSPINAFLSVDHLGGGGESM
notes: Endogenous protein pulled down from neuronal lysate with GW182 antiserum 18033 (gift of M. Fritzler) on protein G beads; also called TNRC6a; P-body component GW182
On to B1, for which the binding result is given as “no binding”.
